Legend:
[1] = molecular target: T1, Human interleukin-18 (recombinant human IL-18) (human, UniProt Q14116 37-193); experiment: SPR, Biacore T100, Protein A capture, 25 C, mean n = 4
T1 construct: also called hIL-18
T1 sequence: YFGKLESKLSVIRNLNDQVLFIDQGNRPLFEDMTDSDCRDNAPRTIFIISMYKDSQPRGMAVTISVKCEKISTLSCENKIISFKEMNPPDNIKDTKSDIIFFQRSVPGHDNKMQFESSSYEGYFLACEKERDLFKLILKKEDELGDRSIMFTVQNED
Experimental: (§1) The methodology was basically the same as for the method used in Example 4a above; Protein A was immobilised on a CM5 chip at densities of between 2000-6000 RU's by primary amine coupling. Runs were carried out in HBS-EP (Biacore™). The anti-IL-18 antibodies were captured to densities of between 100-500 RUs, human IL-18 was passed over this captured surface at concentrations between 16-0.0625 nM, with 0 nM concentration (i.e., a buffer only injection of captured antibody) used for double referencing. Regeneration after each injection of IL-18 was by mild acidic elution using two injections of 10 mM glycine, pH1.5. […] The binding curves obtained were analysed using the analysis software inherent to the T100 machine using the 1:1 model of binding. Runs were carried out at the temperatures indicated.
(§2) These experiments were carried out as described above. Table 6 details the kinetic parameters obtained. […] H1L2 has a better on-rate (ka) than H1L1.

[2] = molecular target: T1, Human interleukin-18 (recombinant human …); experiment: SPR, Biacore T100, Protein A capture, 37 C, mean n = 6
Experimental: as §1, §2

[3] = molecular target: T2, Rhesus IL-18 (rhesus (rhesus/cynomolgus)); experiment: SPR, Biacore 3000, antibody captured on Protein A, 25 C
T2 construct: also called Rhesus/Cynomolgus IL-18; rhesus/cynomolgus IL-18
Experimental: (§3) Biacore™ kinetic analysis of the humanised 2C10 antibodies was carried out on a Biacore™ 3000 instrument using Protein A capture of the antibodies in HBS-EP buffer (Biacore™). Briefly, Protein A was immobilised on a CM5 chip by primary amine coupling, using manufacturers recommended protocol, to densities around 2000-4000 resonance units (RU's). Humanised antibody was then passed over the Protein A surface and captured to levels of around 200-500 RU's, after a period of stabilisation, IL-18 (human or Rhesus) was passed over the captured antibody surface at defined concentrations and binding sensorgrams were obtained. […] All curves were double referenced against a buffer injection instead of IL-18 and the data was fitted to the 1:1 binding model using the global fit parameters in BiaEval 4.1. Off-rate ranking experiments were set up using the same Protein A capture method, however, only a single concentration of IL-18 was used (10 nM). Whilst the data was fitted using the same binding model as the kinetic analysis, since only one concentration of analyte was used on the off-rate is reported, this value is useful for ranking rather than giving an exact kinetic measurement and was used as a way of selecting which antibodies would be further investigated.
(§4) Based upon these observations selected antibodies were investigated in greater detail for binding to human and Rhesus IL-18 at 37° C. The data shown in Table 4b for human IL-18 is the mean (and standard deviation) of six separate determinations.

[4] = molecular target: T1, Human interleukin-18 (recombinant human …); experiment: SPR, Biacore 3000, antibody captured on Protein A, 37 C
Experimental: as §3, §4

[5] = molecular target: T2, Rhesus IL-18; experiment: as above
Experimental: as §3, §4

[6] = molecular target: T1, Human interleukin-18 (recombinant human …); experiment: SPR, Biacore T100, antibody captured on Protein A, 15 C
[7] = molecular target: T1, Human interleukin-18 (recombinant human …); experiment: SPR, Biacore T100, antibody captured on Protein A, 20 C
Experimental: as §1
(§5) This experiment was carried out using the above method at various temperatures. […] Table 5 details the kinetic values used to create these figures.

[8] = molecular target: T1, Human interleukin-18 (recombinant human …); experiment: SPR, Biacore T100, antibody captured on Protein A, 32 C
Experimental: as §1, §5

[9] = molecular target: T1, Human interleukin-18 (recombinant human …); experiment: ELISA, human IL-18 captured by 16D10, antibody titrated
Experimental: ELISA with all nine humanised variants was carried out at least 6 times using various batches of purified antibody preparation. FIGS. 4A-4C show representative data from one experiment which generated the EC50 value ranking illustrated in Table 7. Human IL-18 was immobilized on Nunc Maxisorp 96-well plates using 2.5 µg/ml of 16D10 (non-neutralising mouse monoclonal antibody) to capture 5 ng/ml of recombinant human IL-18. Anti-IL-18 humanised antibodies were added at various dilutions. Bound humanised antibodies were detected using anti-human IgG Fc specific peroxidase conjugate (Sigma A0170).

[10] = molecular target: T2, Rhesus IL-18; experiment: Rhesus IL18 binding ELISA, antibody titrated, OD 490 nm
[11] = molecular target: T1, Human interleukin-18 (recombinant human …); experiment: ELISA, antibody on plate, human IL-18 captured, detected by 16D10; 37 C, in serum
Experimental: (§6) ELISA was carried out with the three Humanised H1 variants; H1L1, H1L2 and H1L3 to assess binding to human IL-18 at room temperature and at 37° C. in both human serum and in block solution (PBS 0.05% TWEEN with 1% BSA (w/v)). The Humanised antibody variants were immobilised on Nunc Maxisorp 96-well plates at 2.5 µg/ml. Capture of 5 ng/ml of recombinant human IL-18 was carried out either at room temperature or 37° C. in human serum or block solution. Anti-IL-18 mouse monoclonal antibody 16D10 was added. The bound mouse antibody was detected using anti-mouse kappa peroxidase conjugate (Serotec MCA 1291P). Representative EC50 values generated from the study data are illustrated in Table 9.

[12] = molecular target: T1, Human interleukin-18 (recombinant human …); experiment: ELISA, antibody on plate, human IL-18 captured, detected by 16D10; 37 C, blocking buffer
Experimental: as §6

[13] = molecular target: T1, Human interleukin-18 (recombinant human …); experiment: ELISA, antibody on plate, human IL-18 captured, detected by 16D10; room temperature, blocking buffer
Experimental: as §6

[14] = molecular target: T1, Human interleukin-18 (recombinant human …); experiment: ELISA, antibody on plate, human IL-18 captured, detected by 16D10; room temperature, in serum; room temperature incubation, in presence of serum
Experimental: as §6

B1: H1L2 humanised anti-IL-18 antibody (antibody, human IgG1, kappa, V domains shown)
VH: QVQLVQSGAEVKKPGASVKVSCKVSGEISTGYYFHWVRQAPGKGLEWMGRIDPEDDSTKYAERFKDRVTMTEDTSTDTAYMELSSLRSEDTAVYYCTTWRIYRDSSGRPFYVMDAWGQGTLVTVSS
VL: DIQMTQSPSSVSASVGDRVTITCLASEDIYTYLTWYQQKPGKAPKLLIYGANKLQDGVPSRFSGSGSGTDYTLTISSLQPEDFATYYCLQGSKFPLTFGQGTKLEIKR
notes: Human IgG1 / kappa
With B1 the Kd [1] was 0.0163 nM, the Kd [2] was 0.046 nM and the Kd [3] was 0.108 nM. For the same binder, the Kd [4] was 0.197 nM, the Kd [5] was 0.139 nM and the Kd [6] was 0.01 nM. The Kd [7] was 0.0089 nM, the Kd [8] was 0.0189 nM and the EC50 [9] was 11 ng/mL. For the same binder, the “EC50 (read off the curve)” value [10] was about 30 ng/mL, the EC50 [11] was 9.79 ng/mL and the EC50 [12] was 3.4 ng/mL. It also gave an EC50 [13] of 3.55 ng/mL and an EC50 [14] of 9.79 ng/mL.

From patent US8133978 (GlaxoSmithKline, dated 2012)
